One block for each molecule: values may come before it.
Columns and labels:
GFP-p19^Arf = molecular target: T1, GFP-p19^Arf (Mus musculus, UniProt Q64364); assay: Nuclear microinjection and live cell imaging of Texas Red labeled Hdm2 constructs in NIH 3T3 cells lacking Arf; assay type: cell-based; details: NIH 3T3 Arf-/- cells, nuclear microinjection
T1 construct: expressed in transfected cells; host or cells: NIH 3T3 Arf-/- cells
T1 sequence (Q64364 1-169): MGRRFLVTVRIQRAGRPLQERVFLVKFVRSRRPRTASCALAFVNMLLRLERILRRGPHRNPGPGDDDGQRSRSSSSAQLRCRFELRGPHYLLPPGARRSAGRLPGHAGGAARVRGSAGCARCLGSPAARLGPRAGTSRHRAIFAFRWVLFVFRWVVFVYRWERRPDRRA
Protocol: Proteins for fluorescence microimaging studies were covalently modified using an amine-reactive, sulfosuccinimidyl ester of Texas Red™ (Molecular Probes, Inc., Cat. # C-1171). In brief, purified Hdm2-derived proteins were dialyzed into 100 mM sodium bicarbonate buffer, pH 8.3 at 2-4 mg/ml. The Texas Red™ dye was dissolved in dimethylsulfoxide at 10 mg/ml. Protein and dye 3:1 (vol:vol) were reacted for 1 hour at room temperature followed by purification using size-exclusion chromatography (NAP 5 G-25 columns, Amersham Pharmacia Biotech, Inc.). Labeled protein bands migrated more slowly than unlabeled protein in SDS-polyacrylamide gels consistent with the covalent attachment of dye.
NIH 3T3 Arf^−/− cells passage 10-15 were cultured in Dulbecco's modified Eagle's medium (Dulbecco's modified Eagle's medium (DMEM); Gibco-Invitrogen, Inc.), 10% fetal bovine serum (FBS) at 37° C., 7% CO2. 24 hours prior to transfection, cells were plated on 35 mm dishes coated with poly-D-Lysine (Mattek, Corp.) at a density of 3×10^4 cells per dish. […] An Axiovert 135 TV inverted fluorescence microscope with an automated stage controller (Carl Zeiss, Inc.) and circulating water bath heater (Fisher) was used for both microinjection and imaging. […]

mArfN37 = molecular target: T2, mArfN37 (Mus musculus, UniProt Q64364); assay: SPR binding of Hdm2 constructs and Hdm2 peptides to immobilized His-tagged mArfN37; details: His-mArfN37 captured by covalently linked His antibody
T2 construct: An N-terminal fragment of mouse p19^Arf corresponding to residues 1-37 (mArfN37) was purified in a similar manner; made in house
T2 sequence (Q64364 1-37 limits assumed): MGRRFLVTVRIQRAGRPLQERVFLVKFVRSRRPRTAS
Protocol: Binding studies were performed using a Biacore 3000 surface plasmon resonance (SPR) instrument (Biacore, Inc.). A Tetra-His™ Antibody (Qiagen, Inc.; Cat. #34670) was covalently attached to a carboxymethylated gold surface (C-1 chip; Biacore, Inc.). The carboxymethyl groups on the surface were activated with N-ethyl-N′-(3-dimethylaminopropyl) carbodiimide (EDC) and N-hydroxysuccinimide (NHS) and the antibody was attached at pH 7.4 in 20 mM sodium phosphate buffer, 150 mM NaCl (PBS). Reactive sites remaining on the surface were blocked by reaction with ethanolamine. […] Binding was measured by flowing the non-His-tagged analyte through the reference and ligand-containing flow cells in sequence. […] Changes in the SPR response due to solvent differences and the injection process were monitored by injection of HBS-N buffer alone. […]
It has been previously shown that a fragment of mouse p19^Arf containing the N-terminal 37 amino acids (mArfN37) can (i) bind Hdm2, (ii) cause the relocalization of Hdm2 to nucleoli, and (iii) induce cell cycle arrest in MEFs [see, U.S. patent application Ser. No. 09/480,718, Filed Jan. […] However, because mArfN37 is a relatively small polypeptide, it was determined whether it could bind a correspondingly small segment of Hdm2. […]

localization of Texas Red labeled Hdm2 construct when GFP-p19^Arf is expressed (GFP-p19^Arf): nucleolar localization
binding to His-tagged mArfN37 immobilized on the SPR biosensor surface (mArfN37): bind tightly
B1: Hdm2 210-275: Fragment of Hdm2 corresponding to residues 210-275 of SEQ ID NO:8 (protein, listed as Homo sapiens)
chain: SSSSESTGTPSNPDLDAGVSEHSGDWLDQDSVSDQFSVEFEVESLDSEDYSLSEEGQELSDEDDEV

B2: Hdm2 277-350: Texas Red labeled Hdm2 deletion construct containing residues 277-350 (protein)
chain: QVTVYQAGESDTDSFEEDPEISLADYWKCTSCNEMNPPLPSHCNRCWALRENWLPEDKGKDKGEISEKAKLENS
localization of Texas Red labeled Hdm2 construct when GFP-p19^Arf is expressed (GFP-p19^Arf): localized in the nucleoplasm rather than in nucleoli

From US20020045192A1, “Arf and HDM2 interaction domains and methods of use thereof” (St. Jude Children's Research Hospital, priority 2001, published 2002)
